Results published in US20170015742A1 (published 2017).

Legend:
VEGF-A = molecular target: T1, VEGF-A (human, UniProt P15692 207-395); test: Biacore SPR; DVD-Ig captured on anti-human Fc, antigen injected
T1 construct: also called hVEGF165
How it was run: (§1)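 Antibodies or DVD-Ig molecules (1 μg/ml) were captured on an anti-human Fc CM5 surface, with antigen injected in solution and responses referenced to the capture-only surface. Rate constants came from a global 1:1 Langmuir fit, and KD = koff/kon.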

PDGF-BB = molecular target: T2, PDGF-BB (human, UniProt P01127 82-190, limits assumed); test: as above
T2 construct: also called human PDGF-BB; hPDGF-BB
T2 sequence (P01127 82-190 limits assumed): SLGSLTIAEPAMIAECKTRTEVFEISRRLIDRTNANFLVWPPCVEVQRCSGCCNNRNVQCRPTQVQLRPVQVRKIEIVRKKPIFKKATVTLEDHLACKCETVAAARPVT
How it was run: as §1

T1 sequence (P15692 other isoform, or with tags, fused parts or gaps limits assumed): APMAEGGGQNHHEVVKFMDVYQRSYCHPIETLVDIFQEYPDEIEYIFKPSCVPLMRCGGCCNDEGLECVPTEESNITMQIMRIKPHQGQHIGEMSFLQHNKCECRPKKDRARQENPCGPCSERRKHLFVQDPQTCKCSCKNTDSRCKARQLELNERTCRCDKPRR

| Binder | Kd (VEGF-A) [pM] | kon (VEGF-A) [M⁻¹ s⁻¹] | Kd (PDGF-BB) [pM] | kon (PDGF-BB) [M⁻¹ s⁻¹] |
| --- | --- | --- | --- | --- |
| CL-34565_GS_CL-33675 (PR-1613183) (bispecific antibody, human IgG1, kappa, L234A L235A, DVD-Ig: outer CL-34565 (VEGF), inner CL-33675 (PDGF), linkers GS-H10/GS-L10(dR); Human IgG1 L234A, L235A, H435A with kappa) heavy: EVQLVQSGSELKKPGASVKVSCKASGYTFTDYGMYWVRQAPGQGLEWMGWIDTETGDPTYADDFKGRFVFSLDTSVSTAYLQISSLKAEDTAVYYCARTNYYYRNYMFYFDYWGQGTMVTVSSGGGGSGGGGSEVTLRESGPALVKPTQTLTLTCTFSGFSLSTYGMGVGWIRQPPGKALEWLANIWWDDDKYYNPSLKNRLTISKDTSKNQVVLTMTNMDPVDTATYYCARIESSGPKYSFDYWGQGTMVTVSSASTKGPSVFPLAPSSKSTSGGTAALGCLVKDYFPEPVTVSWNSGALTSGVHTFPAVLQSSGLYSLSSVVTVPSSSLGTQTYICNVNHKPSNTKVDKKVEPKSCDKTHTCPPCPAPEAAGGPSVFLFPPKPKDTLMISRTPEVTCVVVDVSHEDPEVKFNWYVDGVEVHNAKTKPREEQYNSTYRVVSVLTVLHQDWLNGKEYKCKVSNKALPAPIEKTISKAKGQPREPQVYTLPPSREEMTKNQVSLTCLVKGFYPSDIAVEWESNGQPENNYKTTPPVLDSDGSFFLYSKLTVDKSRWQQGNVFSCSVMHEALHNAYTQKSLSLSPGK light: EIVLTQSPATLSLSPGERATLFCRASQSVSNHMHWYQQKPGQAPRLLIYGASILESGVPARFSGSGSGTDFTLTISSLEPEDFAVYYCQQSWYDPITFGQGTKLEIKGGSGGGGSGGEIVLTQSPGTLSLSPGERATLSCRASSGSIWYSFVSWYQQKPGQAPRLLIYADDQRASGIPDRFSGSGSGTDFTLTISRLEPEDFAVYYCQSYGINIDVVFGGGTKVEIKRTVAAPSVFIFPPSDEQLKSGTASVVCLLNNFYPREAKVQWKVDNALQSGNSQESVTEQDSKDSTYSLSSTLTLSKADYEKHKVYACEVTHQGLSSPVTKSFNRGEC | 1.7 | 1.2e+07 | 0.19 | 6e+07 |
| CL-34565_GS_9E8.4 (PR-1613184) (bispecific antibody, human IgG1, kappa, L234A L235A, DVD-Ig: outer CL-34565 (VEGF), inner hBDI-9E8.4 (PDGF), linkers GS-H10/GS-L10(dR); Human IgG1 L234A, L235A, H435A with kappa) heavy: EVQLVQSGSELKKPGASVKVSCKASGYTFTDYGMYWVRQAPGQGLEWMGWIDTETGDPTYADDFKGRFVFSLDTSVSTAYLQISSLKAEDTAVYYCARTNYYYRNYMFYFDYWGQGTMVTVSSGGGGSGGGGSEVTLRESGPALVKPTQTLTLTCTFSGFSLSTYGMGVGWIRQPPGKALEWLANIWWDDDKYYNPSLKNRLTISKDTSKNQVVLTMTNMDPVDTATYYCARIESIGTTYSFDYWGQGTMVTVSSASTKGPSVFPLAPSSKSTSGGTAALGCLVKDYFPEPVTVSWNSGALTSGVHTFPAVLQSSGLYSLSSVVTVPSSSLGTQTYICNVNHKPSNTKVDKKVEPKSCDKTHTCPPCPAPEAAGGPSVFLFPPKPKDTLMISRTPEVTCVVVDVSHEDPEVKFNWYVDGVEVHNAKTKPREEQYNSTYRVVSVLTVLHQDWLNGKEYKCKVSNKALPAPIEKTISKAKGQPREPQVYTLPPSREEMTKNQVSLTCLVKGFYPSDIAVEWESNGQPENNYKTTPPVLDSDGSFFLYSKLTVDKSRWQQGNVFSCSVMHEALHNAYTQKSLSLSPGK light: EIVLTQSPATLSLSPGERATLFCRASQSVSNHMHWYQQKPGQAPRLLIYGASILESGVPARFSGSGSGTDFTLTISSLEPEDFAVYYCQQSWYDPITFGQGTKLEIKGGSGGGGSGGEFVLTQSPGTLSLSPGERATLSCERSSGDIGDSYVSWYQQKPGQAPRLVIYADDQRPSGIPDRFSGSGSGTDFTLTISRLEPEDFAVYYCQSYDINIDIVFGGGTKVEIKRTVAAPSVFIFPPSDEQLKSGTASVVCLLNNFYPREAKVQWKVDNALQSGNSQESVTEQDSKDSTYSLSSTLTLSKADYEKHKVYACEVTHQGLSSPVTKSFNRGEC | 1.1 | 1.5e+07 | 5.4 | 3.5e+07 |
| 4G8.5_GS_CL-33675 (PR-1611291) (bispecific antibody, human IgG1, kappa, L234A L235A, DVD-Ig: outer hBDB-4G8.5 (VEGF), inner CL-33675 (PDGF), linkers GS-H10/GS-L10(dR); Human IgG1 L234A, L235A, H435A with kappa) heavy: EIQLVQSGSELKKPGASVKVSCKASGYTFTNYGMYWVRQAPGQGLEYMGWINTETGKPTYADDFKGRFVFSLDTSVSTAYLQISSLKAEDTAVYFCARTNYYYRSYIFYFDYWGQGTMVTVSSGGGGSGGGGSEVTLRESGPALVKPTQTLTLTCTFSGFSLSTYGMGVGWIRQPPGKALEWLANIWWDDDKYYNPSLKNRLTISKDTSKNQVVLTMTNMDPVDTATYYCARIESSGPKYSFDYWGQGTMVTVSSASTKGPSVFPLAPSSKSTSGGTAALGCLVKDYFPEPVTVSWNSGALTSGVHTFPAVLQSSGLYSLSSVVTVPSSSLGTQTYICNVNHKPSNTKVDKKVEPKSCDKTHTCPPCPAPEAAGGPSVFLFPPKPKDTLMISRTPEVTCVVVDVSHEDPEVKFNWYVDGVEVHNAKTKPREEQYNSTYRVVSVLTVLHQDWLNGKEYKCKVSNKALPAPIEKTISKAKGQPREPQVYTLPPSREEMTKNQVSLTCLVKGFYPSDIAVEWESNGQPENNYKTTPPVLDSDGSFFLYSKLTVDKSRWQQGNVFSCSVMHEALHNAYTQKSLSLSPGK light: ATQLTQSPSLSASVGDRVTITCRASESVSTHMHWYQQKPGKQPKLLIYGASNLESGVPSRFSGSGSGTDFTLTISSLQPEDFATYFCQQSWNDPFTFGQGTKLEIKGGSGGGGSGGEIVLTQSPGTLSLSPGERATLSCRASSGSIWYSFVSWYQQKPGQAPRLLIYADDQRASGIPDRFSGSGSGTDFTLTISRLEPEDFAVYYCQSYGINIDVVFGGGTKVEIKRTVAAPSVFIFPPSDEQLKSGTASVVCLLNNFYPREAKVQWKVDNALQSGNSQESVTEQDSKDSTYSLSSTLTLSKADYEKHKVYACEVTHQGLSSPVTKSFNRGEC | 6.6 | 4.7e+06 | 0.74 | 1.6e+07 |
| 4G8.5_GS_9E8.4 (PR-1612489) (bispecific antibody, human IgG1, kappa, L234A L235A, DVD-Ig: outer hBDB-4G8.5 (VEGF), inner hBDI-9E8.4 (PDGF), linkers GS-H10/GS-L10(dR); Human IgG1 L234A, L235A, H435A with kappa) heavy: EIQLVQSGSELKKPGASVKVSCKASGYTFTNYGMYWVRQAPGQGLEYMGWINTETGKPTYADDFKGRFVFSLDTSVSTAYLQISSLKAEDTAVYFCARTNYYYRSYIFYFDYWGQGTMVTVSSGGGGSGGGGSEVTLRESGPALVKPTQTLTLTCTFSGFSLSTYGMGVGWIRQPPGKALEWLANIWWDDDKYYNPSLKNRLTISKDTSKNQVVLTMTNMDPVDTATYYCARIESIGTTYSFDYWGQGTMVTVSSASTKGPSVFPLAPSSKSTSGGTAALGCLVKDYFPEPVTVSWNSGALTSGVHTFPAVLQSSGLYSLSSVVTVPSSSLGTQTYICNVNHKPSNTKVDKKVEPKSCDKTHTCPPCPAPEAAGGPSVFLFPPKPKDTLMISRTPEVTCVVVDVSHEDPEVKFNWYVDGVEVHNAKTKPREEQYNSTYRVVSVLTVLHQDWLNGKEYKCKVSNKALPAPIEKTISKAKGQPREPQVYTLPPSREEMTKNQVSLTCLVKGFYPSDIAVEWESNGQPENNYKTTPPVLDSDGSFFLYSKLTVDKSRWQQGNVFSCSVMHEALHNAYTQKSLSLSPGK light: ATQLTQSPSLSASVGDRVTITCRASESVSTHMHWYQQKPGKQPKLLIYGASNLESGVPSRFSGSGSGTDFTLTISSLQPEDFATYFCQQSWNDPFTFGQGTKLEIKGGSGGGGSGGEFVLTQSPGTLSLSPGERATLSCERSSGDIGDSYVSWYQQKPGQAPRLVIYADDQRPSGIPDRFSGSGSGTDFTLTISRLEPEDFAVYYCQSYDINIDIVFGGGTKVEIKRTVAAPSVFIFPPSDEQLKSGTASVVCLLNNFYPREAKVQWKVDNALQSGNSQESVTEQDSKDSTYSLSSTLTLSKADYEKHKVYACEVTHQGLSSPVTKSFNRGEC | 8.5 | 5.4e+06 | 28 | 5.8e+06 |
| CL-34565_GS_3E2.1 (PR-1613185) (bispecific antibody, human IgG1, kappa, L234A L235A, DVD-Ig: outer CL-34565 (VEGF), inner hBFU-3E2.1 (PDGF), linkers GS-H10/GS-L10(dR); Human IgG1 L234A, L235A, H435A with kappa) heavy: EVQLVQSGSELKKPGASVKVSCKASGYTFTDYGMYWVRQAPGQGLEWMGWIDTETGDPTYADDFKGRFVFSLDTSVSTAYLQISSLKAEDTAVYYCARTNYYYRNYMFYFDYWGQGTMVTVSSGGGGSGGGGSEVQLVQSGAEVKKPGSSVKVSCKASGYTFTESYMYWVKQAPGQGLELIGRIDPEDGSTDYVEKFKNKATLTADKSTSTAYMELSSLRSEDTAVYFCARFGARSYFYPMDAWGQGTTVTVSSASTKGPSVFPLAPSSKSTSGGTAALGCLVKDYFPEPVTVSWNSGALTSGVHTFPAVLQSSGLYSLSSVVTVPSSSLGTQTYICNVNHKPSNTKVDKKVEPKSCDKTHTCPPCPAPEAAGGPSVFLFPPKPKDTLMISRTPEVTCVVVDVSHEDPEVKFNWYVDGVEVHNAKTKPREEQYNSTYRVVSVLTVLHQDWLNGKEYKCKVSNKALPAPIEKTISKAKGQPREPQVYTLPPSREEMTKNQVSLTCLVKGFYPSDIAVEWESNGQPENNYKTTPPVLDSDGSFFLYSKLTVDKSRWQQGNVFSCSVMHEALHNAYTQKSLSLSPGK light: EIVLTQSPATLSLSPGERATLFCRASQSVSNHMHWYQQKPGQAPRLLIYGASILESGVPARFSGSGSGTDFTLTISSLEPEDFAVYYCQQSWYDPITFGQGTKLEIKGGSGGGGSGGETVLTQSPATLSLSPGERATLSCRASESVSTLMHWYQQKPGQQPRLLIYGASNLESGVPARFSGSGSGTDFTLTISSLEPEDFAVYFCQQSWNDPWTFGGGTKVEIKRTVAAPSVFIFPPSDEQLKSGTASVVCLLNNFYPREAKVQWKVDNALQSGNSQESVTEQDSKDSTYSLSSTLTLSKADYEKHKVYACEVTHQGLSSPVTKSFNRGEC | 1.4 | 1.2e+07 | 12 | 4.5e+07 |
| 4G8.5_GS_3E2.1 (PR-1610560) (bispecific antibody, human IgG1, kappa, L234A L235A, DVD-Ig: outer hBDB-4G8.5 (VEGF), inner hBFU-3E2.1 (PDGF), linkers GS-H10/GS-L10(dR); Human IgG1 L234A, L235A, H435A with kappa) heavy: EIQLVQSGSELKKPGASVKVSCKASGYTFTNYGMYWVRQAPGQGLEYMGWINTETGKPTYADDFKGRFVFSLDTSVSTAYLQISSLKAEDTAVYFCARTNYYYRSYIFYFDYWGQGTMVTVSSGGGGSGGGGSEVQLVQSGAEVKKPGSSVKVSCKASGYTFTESYMYWVKQAPGQGLELIGRIDPEDGSTDYVEKFKNKATLTADKSTSTAYMELSSLRSEDTAVYFCARFGARSYFYPMDAWGQGTTVTVSSASTKGPSVFPLAPSSKSTSGGTAALGCLVKDYFPEPVTVSWNSGALTSGVHTFPAVLQSSGLYSLSSVVTVPSSSLGTQTYICNVNHKPSNTKVDKKVEPKSCDKTHTCPPCPAPEAAGGPSVFLFPPKPKDTLMISRTPEVTCVVVDVSHEDPEVKFNWYVDGVEVHNAKTKPREEQYNSTYRVVSVLTVLHQDWLNGKEYKCKVSNKALPAPIEKTISKAKGQPREPQVYTLPPSREEMTKNQVSLTCLVKGFYPSDIAVEWESNGQPENNYKTTPPVLDSDGSFFLYSKLTVDKSRWQQGNVFSCSVMHEALHNAYTQKSLSLSPGK light: ATQLTQSPSLSASVGDRVTITCRASESVSTHMHWYQQKPGKQPKLLIYGASNLESGVPSRFSGSGSGTDFTLTISSLQPEDFATYFCQQSWNDPFTFGQGTKLEIKGGSGGGGSGGETVLTQSPATLSLSPGERATLSCRASESVSTLMHWYQQKPGQQPRLLIYGASNLESGVPARFSGSGSGTDFTLTISSLEPEDFAVYFCQQSWNDPWTFGGGTKVEIKRTVAAPSVFIFPPSDEQLKSGTASVVCLLNNFYPREAKVQWKVDNALQSGNSQESVTEQDSKDSTYSLSSTLTLSKADYEKHKVYACEVTHQGLSSPVTKSFNRGEC | 8.7 | 4.8e+06 | 13 | 4.1e+07 |
